Results as given in patent US20050069530A1.

Target: human type IIA sPLA2 (human) (UniProt P14555)
Test: cell-based or functional assay

human type IIA sPLA2 (human), sequence (P14555 21-144): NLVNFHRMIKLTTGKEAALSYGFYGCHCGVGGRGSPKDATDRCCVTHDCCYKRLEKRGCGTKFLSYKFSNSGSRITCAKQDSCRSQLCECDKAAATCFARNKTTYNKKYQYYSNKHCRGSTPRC

Row | Substance | IC50 of sPLA2 enzyme inhibition (3H-labelled E. coli membranes as substrate) [µM] | Mean % Inhibition at fixed peptide concentration [5 µM] [%]
1 | D65A-PIP (59-67) (peptide) | 5.45 | –
2 | D65E-PIP (59-67) (peptide) | 4.95 | –
3 | D65S-PIP (59-67) (peptide) | 5.25 | –
4 | PIP (59-67) dimer (peptide) | 1.19 | 74.5
